The target of experiment [1] is T1, anti-CD19 (FMC63-derived) chimeric antigen receptor (CAR), expressed on T cells.
T1 construct: Whole CAR on the surface of transduced human T cells/PBMCs, co-expressed with EGFRt from the same construct (T2A); treated here as one molecule; also called anti-CD19 (FMC63) CAR; FMC63-derived CAR
Nature of the experiment: flow cytometry, CAR T cells spiked into human PBMCs. On the procedure: The anti-CD19 CAR expressing cells were spiked in to a sample of cells containing healthy human peripheral blood mononuclear cells (PBMCs). The resulting cell compositions were incubated with different concentrations of the anti-CD19 FMC63 scFv-specific anti-ID B1 or anti-ID B2 antibodies. As a control, samples of each condition were also incubated with a concentration of anti-EGFR antibody, capable of detecting the EGFRt surrogate marker on the transduced cells. Control samples included those only containing the PBMCs without the addition of added CAR− expressing T cells. Geometric mean fluorescence intensity (MFI) was quantified in positively labeled cells to assess antibody staining.

Experiment [2] deals with T2, human Fc-fusion protein containing the FMC63-derived scFv portion of the CAR (biotinylated ECD fusion protein … (biotinylated (capture form))); sulfo-tagged (detection form)).
T2 construct: also called FMC63-derived Fc-scFv fusion; not shown: human Fc
The experiment in a line: bridge assay, biotinylated scFv-Fc on streptavidin plate, sulfo-tagged scFv-Fc detection, ECL (MSD). The source says:
A bridge anti-therapeutic antibody (ATA) assay was developed to detect the presence or absence of antibodies, in serum of treated subjects, recognizing administered anti-CD19 CARs. Certain anti-ID antibodies described in Examples 1-3 were used as positive controls and to validate the ability of the assay to detect the presence of such antibodies.
A biotinylated human Fc-fusion protein (biotinylated ECD fusion protein) was used, containing an scFv portion of the CAR with variable regions derived from FMC63 (set forth in SEQ ID NO:34). The biotinylated ECD fusion protein was added to streptavidin-coated wells; the plates were incubated under conditions to allow binding of the fusion protein, and washed. To the biotinylated fusion protein-coated wells, various concentrations of anti-ID B-1 or anti-ID B-2 were added to the wells, and allowed to incubate under conditions to allow specific binding of the antibody. After washing, a sulfo-tagged version of the ECD fusion protein (sulfo-ECD fusion protein) containing the FMC63-derived Fc-scFv fusion. The wells were washed and an electrochemiluminescence (ECL) signal was read on a Meso Scale Discovery (MSD) Sector Imager.

Experiment [3] concerns the target T3, anti-CD19 (SJ25C1-derived) chimeric antigen receptor (CAR), expressed on T cells or Jurkat cells (human, UniProt P10747 153-179; P10747 180-220; P20963 52-163, limits assumed).
T3 construct: domain: transmembrane domain;domain: intracellular signaling domain;domain: signaling domain; Whole CAR on the surface of transduced human T cells, PBMCs or Jurkat cells; also called anti-CD19 (SJ25C1) CAR; SJ25C1-derived CAR
The experiment in a line: flow cytometry, biotin-conjugated antibody and PE-streptavidin on CAR-transduced cells. The protocol:
Hybridoma fusion clones were generated and 12 candidate clones were further characterized by flow cytometry. Peripheral blood mononuclear cells were isolated from human subjects and cells were activated and transduced with a viral vector encoding the anti-CD19 CAR. For flow cytometry, about 1×10⁶ cells per 100 μL were incubated with 10 μL of biotin-conjugated anti-idiotype antibody followed by staining with a PE-conjugated streptavidin. As a positive control for surface expression of the CAR, cells were stained with an anti-EGFR antibody to verify expression of the EGFRt transduction marker, which was a surrogate of CAR expression. […] Cells were gated on CD3⁺ CD4⁺/CD8⁺ PBMCs and fluorescence signal was determined. […] To confirm the antibodies were specific for the scFv derived from the anti-CD19 antibody derived from FMC63, similar experiments were performed on cells transduced with an anti-CD19 CAR derived from SJ25C1 as described in Example 1. […] Anti-idiotype antibody clones B-1 (anti-ID B-1) and B-2 (anti-ID B-2) were selected for further characterization.

The target of experiment [4] is T1, anti-CD19 (FMC63-derived) chimeric …. Nature of the experiment: inferred from a T cell proliferation assay with plate-bound antibody. The protocol: For proliferation studies, engineered T cells were labeled with 50 nM carboxyfluorescein succinimidyl ester (CFSE) or CELL TRACE VIOLET (CTV) dye. Where relevant, expression of the surrogate EGFRt marker was detected by staining with an anti-EGFR antibody. Cells were seeded at a fixed number of cells per well in wells previously coated with 10, 5, 2.5, or 1.25 μg/ml of OKT3 (anti-CD3 antibody), or of anti-idiotype antibodies recognizing SJ25C1 and FMC63 (anti-ID A-land anti-ID B-1, respectively) in sodium carbonate/bicarbonate buffer (pH 9.0) overnight. Cells seeded in wells with no antibody coating were included as negative controls. The cells were cultured for 4 days and assessed for viability, proliferation, and expression of CD69 and CD25.
Proliferation of anti-CD19 (SJ25C1 or FMC63) CAR− expressing T cells was assessed by dye dilution using flow cytometry. The percent of CD3⁺/CFSE® w cells observed following stimulation of anti-CD19 (SJ25C1) CAR− expressing T cells with anti-ID A-1 is shown in FIG. 2A. The percent of CD3⁺/EGFR+/CFSE® W cells observed following stimulation of anti-CD19 (FMC63) CAR− expressing T cells with anti-ID B-1 is shown in FIG. 2B. […]

In experiment [5] the target is recombinant soluble extracellular domain (ECD) portion of the anti-CD19 (SJ25C1-derived) CAR (human). Nature of the experiment: ELISA on the recombinant soluble ECD portion; A-1 is the one named clone of the five. A general note: An ELISA detects its analyte on a solid surface through an enzyme-linked reagent.
Chain of recombinant soluble extracellular domain (ECD) portion of the anti-CD19 (SJ25C1-derived) CAR (human) (chain, as listed by the source): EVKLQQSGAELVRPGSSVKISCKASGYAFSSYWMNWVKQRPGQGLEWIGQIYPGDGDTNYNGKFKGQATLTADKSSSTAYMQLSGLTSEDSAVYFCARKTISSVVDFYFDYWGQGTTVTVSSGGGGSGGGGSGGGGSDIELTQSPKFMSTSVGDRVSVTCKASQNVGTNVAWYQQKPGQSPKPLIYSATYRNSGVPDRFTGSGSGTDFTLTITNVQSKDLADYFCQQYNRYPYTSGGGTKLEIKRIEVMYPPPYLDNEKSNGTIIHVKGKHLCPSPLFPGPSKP

T3 sequence (P10747 other isoform, or with tags, fused parts or gaps mutant limits assumed): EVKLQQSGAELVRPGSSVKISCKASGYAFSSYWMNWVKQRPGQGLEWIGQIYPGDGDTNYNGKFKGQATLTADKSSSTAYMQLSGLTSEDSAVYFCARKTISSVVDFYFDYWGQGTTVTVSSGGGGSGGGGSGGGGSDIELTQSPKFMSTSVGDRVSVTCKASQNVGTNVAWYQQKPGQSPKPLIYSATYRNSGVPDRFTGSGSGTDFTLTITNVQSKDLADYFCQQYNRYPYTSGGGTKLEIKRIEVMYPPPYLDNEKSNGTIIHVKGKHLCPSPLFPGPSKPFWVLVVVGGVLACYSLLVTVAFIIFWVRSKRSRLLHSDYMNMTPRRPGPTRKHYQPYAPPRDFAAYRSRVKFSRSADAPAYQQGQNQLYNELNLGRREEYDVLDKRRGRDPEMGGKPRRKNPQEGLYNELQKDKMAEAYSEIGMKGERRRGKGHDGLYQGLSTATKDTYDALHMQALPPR

B1: anti-idiotype antibody clone B-2 (anti-ID B-2) (antibody, mouse IgG1, kappa, V domains shown)
VH: QVQLQQPGAELVRPGASVKLSCKTSGYSFTRYWMNWVKQRPGQGLEWIGMIHPSDSETRLNQKFKDKATLTVDNSSSTAYMQLSSPTSEDSAVYYCASIYYEEAWGQGTLVTVSA
VL: DIQMTQSPASLSASVGETVTITCRASGNIHNYLAWYQQKQGKSPQLLVYNAKTLADSVPSRFSGSGSGTQYSLKINSLQPEDFGSYYCQHFWSTPYTFGGGTKLEIKR
notes: Mouse hybridoma antibody
B1: the binding result in experiment [1] is “binds”; in experiment [2], “binds”; in experiment [3] it was “no binding”.

B2: anti-idiotype antibody clone B-1 (anti-ID B-1) (antibody, mouse IgG2a, kappa, V domains shown)
VH: EVQLQQSGPELVKPGASVKMSCKASGYTFTDYYMKWVKQCHGKSLEWIGDINPNNGGTDYNQNFKGKATLTVDKSSSTAYMQLNSLTSEDSAVYYCAREGNNYGSRDAMDYWGQGTSVTVSS
VL: QIVLTQSPALMSASPGEKVTMTCSASSGVIYMYWYQQKPRSSPKPWIYLTSNLASGVPARFSGSGSGTSYSLTISSMEAEDAATYYCQQWSSNPLTFGAGTKLELKR
notes: Mouse hybridoma antibody; also called FMC63-derived scFv-specific anti-idiotype antibody
For B2, the results for the binding result in experiment [4], in experiment [2] and in experiment [3] were “binds”, “binds” and “no binding”, respectively.

B3: anti-idiotype antibody clone A-1 (anti-ID A-1) (antibody, mouse IgG1, kappa, V domains shown)
VH: QVQLQQPGSELVRPGGSVKLSCKASDYTFTSYWMHWVRQRPGQGLEWIGNIYPGSGGTNYDEKFKRKATLTVDTSSSTAYMQLRSLTSEDSAVYYCTREVTTVAYYYSMDYWGQGTSVTVSS
VL: DIQMTQTTSSLSASLGDRVTISCRASQDISNYLNWYQQKPDGTVKLLIYYTSRLHSGVPSRFSGSGSGTDYSLTISNLEQEDIATYFCQQGKTVPFTFGSGTKLEIKR
notes: Mouse hybridoma antibody; also called SJ25C1-derived scFv-specific anti-idiotype antibody; SJ25C1-specific anti-idiotype antibody
B3: the binding result in experiment [5] is given as “binds”.

For the origin of these results see patent US20240018268A1 (JUNO THERAPEUTICS, published 2024).
